Assay results from publication PMC6745501 (2019).
Read-outs that look alike come from different tables or passages of the source.

B3: Arabidopsis COP1^349–675 WD40 domain (domain or fragment)
chain: TFTRYSRLRVIAEIRHGDIFHSANIVSSIEFDRDDELFATAGVSRCIKVFDFSSVVNEPADMQCPIVEMSTRSKLSCLSWNKHEKNHIASSDYEGIVTVWDVTTRQSLMEYEEHEKRAWSVDFSRTEPSMLVSGSDDCKVKVWCTRQEASVINIDMKANICCVKYNPGSSNYIAVGSADHHIHYYDLRNISQPLHVFSGHKKAVSYVKFLSNNELASASTDSTLRLWDVKDNLPVRTFRGHTNEKNFVGLTVNSEYLACGSETNEVYVYHKEITRPVTSHRFGSPDMDDAEEEAGSYFISAVCWKSDSPTMLTANSQGTIKVLVLAA

Legend:
[1] = target: B3
[2] = target: B3
[3] = target: T1, COP1^349–675,Lys422Ala WD40 domain (Arabidopsis, UniProt P43254 349-675, Lys422Ala); assay: ITC
T1 sequence: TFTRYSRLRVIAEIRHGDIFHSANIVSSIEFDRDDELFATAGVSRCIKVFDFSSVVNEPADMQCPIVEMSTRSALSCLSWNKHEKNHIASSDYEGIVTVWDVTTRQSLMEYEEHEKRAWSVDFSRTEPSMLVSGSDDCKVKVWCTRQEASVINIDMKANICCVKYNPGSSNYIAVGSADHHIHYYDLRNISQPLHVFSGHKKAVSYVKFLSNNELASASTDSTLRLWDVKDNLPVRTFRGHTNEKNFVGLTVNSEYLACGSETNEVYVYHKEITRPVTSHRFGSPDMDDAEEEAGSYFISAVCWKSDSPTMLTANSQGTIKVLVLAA

[4] = target: B3; assay: ITC
[5] = target: T2, COP1^Tyr441Ala WD40 domain (Arabidopsis, UniProt P43254 349-675, Tyr441Ala); assay: ITC
T2 sequence: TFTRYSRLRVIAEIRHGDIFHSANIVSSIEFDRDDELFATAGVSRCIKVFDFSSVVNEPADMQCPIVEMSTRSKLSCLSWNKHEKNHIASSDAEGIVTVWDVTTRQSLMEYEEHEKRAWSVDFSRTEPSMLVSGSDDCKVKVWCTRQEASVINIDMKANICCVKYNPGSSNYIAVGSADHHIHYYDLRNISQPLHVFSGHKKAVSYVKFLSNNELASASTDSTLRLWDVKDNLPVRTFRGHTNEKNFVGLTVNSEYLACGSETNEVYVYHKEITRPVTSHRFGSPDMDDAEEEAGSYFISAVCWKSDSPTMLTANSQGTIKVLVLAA

[6] = target: T1, COP1^349–675,Lys422Ala WD40 domain; assay: ITC; remark: listed apart in the source
[7] = target: B3; assay: ITC
[8] = target: B3
[9] = target: B3
[10] = target: B3; assay: ITC
[11] = target: T3, UVR8^ValPro/AlaAla (recombinant) (Arabidopsis, UniProt Q9FN03 1-440, ValPro/AlaAla)
T3 sequence: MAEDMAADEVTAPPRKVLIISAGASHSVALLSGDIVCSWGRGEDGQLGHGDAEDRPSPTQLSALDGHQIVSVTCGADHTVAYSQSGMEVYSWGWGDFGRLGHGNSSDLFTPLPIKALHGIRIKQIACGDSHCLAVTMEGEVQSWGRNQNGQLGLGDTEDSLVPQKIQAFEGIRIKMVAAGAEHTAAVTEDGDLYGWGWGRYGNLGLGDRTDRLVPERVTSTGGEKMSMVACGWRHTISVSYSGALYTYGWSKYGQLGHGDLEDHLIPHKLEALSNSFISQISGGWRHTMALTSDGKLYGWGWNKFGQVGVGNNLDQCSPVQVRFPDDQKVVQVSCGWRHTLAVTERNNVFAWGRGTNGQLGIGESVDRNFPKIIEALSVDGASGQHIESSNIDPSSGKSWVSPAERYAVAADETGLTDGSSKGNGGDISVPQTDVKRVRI

[12] = target: UVR8^HY5C44 chimera (recombinant) (Arabidopsis, UniProt Q9FN03); assay: UV-B-activated chimera

B1: full‐length HY5 protein (recombinant) (natural protein)
chain: MQEQATSSLAASSLPSSSERSSSSAPHLEIKEGIESDEEIRRVPEFGGEAVGKETSGRESGSATGQERTQATVGESQRKRGRTPAEKENKRLKRLLRNRVSAQQARERKKAYLSELENRVKDLENKNSELEERLSTLQNENQMLRHILKNTTGNKRGGGGGSNADASL
In the case of B1, the Kd [1] is reported as 1.2 µM and the koff [2] is reported as 0.0832 s⁻¹.

GFGVVPSF [COL3^287–294 VP peptide] was tested, and the Kd [3] was 7.8 µM and the Kd [4] was 39 µM.

NDQQVPSAV [CRY2^527–535 VP peptide] gave a Kd [3] of 560 µM and a Kd [4] of 21 µM.

In the case of EIRRVPEFGG [HY5^39–48 VP peptide], the Kd [5] is reported as 230 µM, the Kd [6] is reported as 23 µM and the Kd [7] is reported as 23 µM.

In the case of EDQMVPSIT [CRY1^544–552 VP peptide], the Kd [3] is reported as 76 µM and the Kd [4] is reported as 3 µM.

Binder GYGIVPSF [CO^366–373 VP peptide] has a Kd [3] of 21 µM and a Kd [4] of 74 µM.

B2: UVR8^HY5VP chimera (recombinant) (other)
chain: MAEDMAADEVTAPPRKVLIISAGASHSVALLSGDIVCSWGRGEDGQLGHGDAEDRPSPTQLSALDGHQIVSVTCGADHTVAYSQSGMEVYSWGWGDFGRLGHGNSSDLFTPLPIKALHGIRIKQIACGDSHCLAVTMEGEVQSWGRNQNGQLGLGDTEDSLVPQKIQAFEGIRIKMVAAGAEHTAAVTEDGDLYGWGWGRYGNLGLGDRTDRLVPERVTSTGGEKMSMVACGWRHTISVSYSGALYTYGWSKYGQLGHGDLEDHLIPHKLEALSNSFISQISGGWRHTMALTSDGKLYGWGWNKFGQVGVGNNLDQCSPVQVRFPDDQKVVQVSCGWRHTLAVTERNNVFAWGRGTNGQLGIGESVDRNFPKIIEALSVDGASGQHIESSNIDPSSGKSWVSPAEEIRRVPEFTGLTDGSSKGNGGDISVPQTDVKRVRI
With B2 the Kd [8] was 0.069 µM and the koff [9] was 0.0532 s⁻¹.

In the case of SDQIVPEY [TRIB1 VP peptide], the Kd [10] is reported as 1.6 µM.

B3 gave a Kd [11] of 2.2 µM and a Kd [12] of 0.269 µM.

B4: UVR8^TRIB1VP chimera (recombinant) (other)
chain: MAEDMAADEVTAPPRKVLIISAGASHSVALLSGDIVCSWGRGEDGQLGHGDAEDRPSPTQLSALDGHQIVSVTCGADHTVAYSQSGMEVYSWGWGDFGRLGHGNSSDLFTPLPIKALHGIRIKQIACGDSHCLAVTMEGEVQSWGRNQNGQLGLGDTEDSLVPQKIQAFEGIRIKMVAAGAEHTAAVTEDGDLYGWGWGRYGNLGLGDRTDRLVPERVTSTGGEKMSMVACGWRHTISVSYSGALYTYGWSKYGQLGHGDLEDHLIPHKLEALSNSFISQISGGWRHTMALTSDGKLYGWGWNKFGQVGVGNNLDQCSPVQVRFPDDQKVVQVSCGWRHTLAVTERNNVFAWGRGTNGQLGIGESVDRNFPKIIEALSVDGASGQHIESSNIDPSSGKSWVSPAESDQIVPEY
Binder B4 has a Kd [8] of 0.093 µM and a koff [9] of 0.0319 s⁻¹.

With RYAVVPDE [UVR8^406–413 VP peptide] the Kd [6] was 16 µM and the Kd [7] was 190 µM.
